In patent publication US20100323397:

Molecular target: T1, wild type (WT) VirD2 protein, Agrobacterium tumefaciens str. C58 (UniProt P18592)
T1 sequence: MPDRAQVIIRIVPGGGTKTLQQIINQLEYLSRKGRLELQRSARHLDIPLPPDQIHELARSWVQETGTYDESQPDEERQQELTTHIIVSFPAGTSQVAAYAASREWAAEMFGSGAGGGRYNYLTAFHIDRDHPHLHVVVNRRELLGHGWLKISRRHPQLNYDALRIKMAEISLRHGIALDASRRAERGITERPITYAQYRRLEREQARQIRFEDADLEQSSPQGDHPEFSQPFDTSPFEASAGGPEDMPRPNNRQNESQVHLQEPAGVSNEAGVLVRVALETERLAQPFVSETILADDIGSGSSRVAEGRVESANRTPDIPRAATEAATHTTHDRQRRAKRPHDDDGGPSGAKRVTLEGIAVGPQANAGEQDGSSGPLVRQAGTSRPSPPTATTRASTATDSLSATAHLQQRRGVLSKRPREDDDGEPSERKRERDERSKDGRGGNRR

“plant caspase (putative subtilisin-like (serine) protease, PSLP) from tobacco” was tested, and the “Western (immunoblotting) analysis of degradation by plant caspase” value was “degradation of wild type (WT) VirD2 protein by plant caspase (lane 2)”.
